This is an account of results in patent US20100015126A1, “Methods of Binding of Cross-Beta Structures By Chaperones” (priority 2006, published 2010).

The target of this assay is T1, human mitochondrial HSP60 (Homo sapiens, UniProt P10809).
T1 construct: Dr. W. van Eden, Utrecht University; host or cells: E. coli
T1 sequence (P10809 27-573): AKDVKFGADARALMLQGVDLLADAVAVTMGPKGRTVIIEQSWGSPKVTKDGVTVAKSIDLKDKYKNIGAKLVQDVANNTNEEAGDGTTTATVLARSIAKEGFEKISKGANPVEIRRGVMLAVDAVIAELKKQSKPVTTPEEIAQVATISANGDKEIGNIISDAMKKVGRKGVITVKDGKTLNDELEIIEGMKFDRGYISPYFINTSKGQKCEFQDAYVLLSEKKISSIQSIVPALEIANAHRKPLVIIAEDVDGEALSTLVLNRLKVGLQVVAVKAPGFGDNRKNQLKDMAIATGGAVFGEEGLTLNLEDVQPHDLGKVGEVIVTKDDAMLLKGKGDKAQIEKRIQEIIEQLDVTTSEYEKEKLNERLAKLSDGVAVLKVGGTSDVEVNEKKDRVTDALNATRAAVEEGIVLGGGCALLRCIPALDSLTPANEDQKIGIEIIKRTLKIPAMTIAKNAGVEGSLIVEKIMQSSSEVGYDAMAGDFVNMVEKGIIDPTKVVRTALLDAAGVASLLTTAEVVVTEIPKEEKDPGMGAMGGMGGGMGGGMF
As to the kind of experiment: ELISA: binding of HSP60 to immobilized (misfolded) protein ligands. On the procedure:
Recombinant human HSP60 with N-terminal His-tag was a kind gift of Dr. R. van der Zee and Prof. Dr. W. van Eden (Institute of Infectious Diseases and Immunology, Faculty of Veterinary Medicine, Utrecht University, Utrecht, The Netherlands), and was supplied in lyophilized form. The HSP60 was produced in E. coli and purified using Nickel-Sepharose. The HSP60 was lyophilized from 20-40 mM ammonium-bicarbonate solution, after purification, and stored at −20° C. The construct lacks the mitochondrial signal sequence. […] Before use, the lyophilized protein is dissolved at room temperature at 1 mg/ml in 20-40 mM NH4HCO3, resulting in a pH of 7.0. Aliquots are stored at −20° C. or −80° C. The mitochondrial HSP60 is a functional dimer of heptamers (MW(HSP60 monomer)=˜58 kDa), and is involved in multimer protein assembling and aids in transport of unfolded proteins across membranes. For the binding studies, at two occasions separate HSP60 solutions were prepared originating from the same batch of purified protein, lyophilized in separate Eppendorf cups.
Binding of chaperones to immobilized (misfolded) protein ligands was determined using an enzyme linked immuno sorbent assay (ELISA) approach. For this purpose 50 μl/well of potential ligands at indicated concentrations or coat buffer only for control and background measurement purposes, were coated overnight at 4° C. or coated for 1 h at room temperature, with motion, in 50 mM NaHCO3 pH 9.6 (coat buffer). In general, ligands were coated at 5 μg/ml, unless stated otherwise. For example, BiP binding peptides 6BB# and oxLDL were coated at 50 μg/ml. Native haemoglobin (Sigma-Aldrich, H7379), albumin, IgIV Gammagard and ovalbumin controls were prepared from lyophilized stocks. The controls were prepared by dissolving lyophilized proteins at 1 mg/ml in PBS upon resuspending by pipetting, followed by a 30 minutes period at the roller device, at room temperature. The protein solutions were centrifuged for 10 minutes at 16,000*g and diluted in coat buffer. After coating the plates were washed at least three times with 50 mM Tris-HCl pH 7.3, 150 mM NaCl, 0.1% v/v Tween20, and blocked with Blocking reagent (Roche Diagnostics, Almere, The Netherlands; 11112589001), for 1 h at room temperature, with motion. Plates were washed three times and incubated in triplicate with indicated chaperone dilution series, at 50 μl/well, for 1 h at room temperature, with constant motion. For HSP90, 5 mM DTT is incorporated in the binding buffer (PBS/0.1% Tween20) to avoid unwanted disulfide bond formation of the HSP90. Plates were washed three times and incubated with anti-FLAG antibody (mouse antibody, M2, peroxidase conjugate; Sigma, A-8592) for BiP-FLAG-His, anti-His-tag antibody (Mouse Monoclonal Antibody, Cat. No. 70796, Novagen [0.2 mg/ml]) for HSP60, a 1:1 mix of 500-fold diluted anti-HSP90beta antibodies (Stressgen, SPA-643 [mouse monoclonal IgM], SPA-646 [rabbit polyclonal]) for HSP90 and an anti-DnaK antibody (Stressgen, 023SPA-880D [mouse monoclonal antibody]) for DnaK. After four wash cycles, secondary antibodies were added to the wells when required, 50 μl/well, for 45′ at room temperature, with motion. RAMPO and SWARPO were used at 3000 times dilution. […] In a second experiment with more immobilized misfolded proteins and controls, the detection of bound HSP90 with the mix of two anti-HSP90 antibodies was achieved by mixing 1:1500 SWARPO with 1:3000 RAMPO. After 5 washes with wash buffer followed by two washes with PBS, binding of antibodies was assessed. Bound anti-FLAG-PO, peroxidase-conjugated rabbit anti-mouse immunoglobulins (RAMPO, P0260, DAKOCytomation, Glostrup, Denmark) or peroxidase-coupled swine anti-rabbit immunoglobulins (SWARPO, P0217, DAKOCytomation) was visualized with tetramethylbenzidine (TMB, #45.01.20,/#45.014.01, Biosource, Nivelles, Belgium). The reaction was stopped after 5 minutes with 1% H2SO4 in H2O. Plates were read at 450 nm. […]
In general terms: ELISA stands for enzyme-linked immunosorbent assay.
On to GSNKGAIIGLM [6BB6, Human Aβ (25-35)], for which the “Binding of concentration series of HSP60 to coated ligand” value (shortened to “Binding”) was “has been established”.

Regarding “native BSA: non-modified bovine serum albumin control”, the “Binding” value is on record as “did not bind”. As for “HbAGE: human haemoglobin glycated with glucose-6-phosphate for 75 weeks”, the “Binding” value is listed as “has been established”. Turning to “Hb: non-modified human haemoglobin control”, the “Binding” value is on record as “did not bind”. To KLVFFAE [6BB12, Human Aβ16-22] belongs “did not bind”; to BSA-AGE, “has been established”.
